Substitutions are numbered along the chain they refer to.
B1: 2B1 (antibody, V domains shown)
VH: EVQLQQSGAELVKPGASVKMSCKASGYTFASYNLHWVKQTPGQGLEWIGLIYPENGDTSYNQKFKGKATLTADKSSSTAYIQLSSLTSEDSAVYFCARGGFDYWGQGTSLTVSS
VL: DIQMIQSPASLSVSVGETVTITCRASENIYSNLAWYQQKQGKSPQLLVYNAKTLADGVPSRFSGSGSGTQYSLKINSLQPEDFGSYYCQHFWSTPYTFGGGTKLEIK
B2: 2B2 (antibody, V domains shown)
VH: B1 VH with E1Q, V2L, G66D, S77T, T87A, S109T
VL: DIVMTQSQKFMSTSVGDRVSVTCKASQNVGTNVAWYQQKPGQSPKALIYSASYRYSGVPDRFTGSGSGTDYTLTISSVQAEDLALYYCQQHYSTPYTFGGGTKLELK
B3: 1B8 (antibody, V domains shown)
VH: B1 VH with E1Q, V2I, K74T, S77T
VL: DIKMTQSPASLSASVGETVTITCGASENIYGALNWYQRKQGKSPQLLIYGATNLADGMSSRFSGSGSGRQYSLKISSLHPDDVATYYCQNVLSTPYTFGGGTKLEIK
B4: 1A3 (antibody, V domains shown)
VH: B1 VH with E1Q, S7P, S109T, S114Q
VL: B3 VL with K3Q
B5: 3E1 (antibody, V domains shown)
VH: QVQLQQPGAEVVKPGASVKMSCKASGYTFTDYYIHWVKQTPGQGLEWIGAIYPDNGDTSYNQKFKVKATLTADKSSSTAYMQLSSLTSEDSAVYYCARAFTYWGQGTLVTVSA
VL: B3 VL with K3L, M4I
B6: 3C7 (antibody, V domains shown)
VH: EIQLQQSGAELVKPGASVKMSCKASGYIFRNYYIHWVKRTPGQGLEWIGAIYPDNGDTSYNQRFKVKATLTADTSSSTAYMQLSSLTSEDSAVYYCARAFTYWGQGTTLTVSS
VL: B3 VL with K3Q, T5I
B7: 3D7 (antibody, V domains shown)
VH: QVQLQQSGAELVKPGASVKMSCKASGYTFSFYNMHWVKRTPGRGLEWIGLIYPDNGDTSYNQKFKGKATLTADTSSSTAYMQLSSLTSEDSAVYYCARGGLDYWGQGTSLTVSS
VL: EIVLTQSPASLAVSLGQRATISCKASQSVDYDGDSYMNWYQQKPGQPPKLLIYGISNRFSGVPDRFSGSGSGTDFTLKISTIKPEDLGMYYCLQGTHQPYTFGGGTKLEIK
B8: 3H9 (antibody, V domains shown)
VH: B7 VH with Q1E, V2I, R43Q, S109T
VL: B1 VL with Q3V, M4L, I5T, N50A, K52T, T53N, P80S, S93G, I106L
B9: 3H6 (antibody, V domains shown)
VH: B7 VH with M34I, K38R, R39Q, R43Q, G66A, T74K, L101F, S109T
VL: B1 VL with I5T, V13A, N32Y, D56E, Y71F, F91H, W92Y, S93G, I106M
B10: 3F11 (antibody, V domains shown)
VH: B1 VH with E1Q, S31P, L34I, K38R, E54D, G66A, I81M, F95Y
VL: B2 VL with Y71F, S77N, A80S, L85E, Y87F, Y96F, G100S, L106I
B11: 3E3 (antibody, V domains shown)
VH: B7 VH with S7P, E10V, K19R, S30P, F31Y, M34V, R43Q, K65T, S109T, S114A
VL: B3 VL with I2V, K3Q, M4I
B12: 3B7 (antibody, V domains shown)
VH: B7 VH with Q1E, S30R, F31Y, R43Q, L101F, S109T
VL: B3 VL with K3Q, I106L
B13: 3B4 (antibody, V domains shown)
VH: B7 VH with Q1E, E10D, F31Y, K38R, R43Q, S109T
VL: B3 VL with K3Q, T5I, L11M, I106M
B14: 3E7 (antibody, V domains shown)
VH: B1 VH with E1Q, A30T, S31I, L34I, K38R, E54D, G66A, I81M, F95Y, S109T
VL: B2 VL with D1N, Y71F, S77G, L85D, S93N, L106I
B15: 3F10 (antibody, V domains shown)
VH: B1 VH with A30S, S31F, L34I, K38R, E54D, G66A, I81M, F95Y, S109T
VL: B3 VL with I2V, K3L
B16: 3A12 (antibody, V domains shown)
VH: B1 VH with A30S, S31F, L34V, K38R, E54D, G66A, T78A, I81M, F95Y
VL: DIVMTQSHKFMSTSVGDRVNITCKASQDVSTAVAWYQQKPGQSPKLLIYSASYRYSGVPDRFTGSGSGTDFTFTISSVQAEDLAVYYCQQHYSTPYTFGGGTKLEMK
B17: 3C9 (antibody, V domains shown)
VH: B7 VH with Q1E, V2I, T28I, S30R, F31Y, R43Q, S109T
VL: B3 VL with K3Q, T5I
B18: 1D7 (antibody, V domains shown)
VH: B7 VH with V2I, S30R, F31Y, R43Q
VL: DIQMTQSPSSMSASLGDRITITCQATQDIVKNLNWYQQKPGKPPSFLIYYATELAEGVPSRFSGSGSGSDYSLTISNLESEDFADYYCLQFYEFPLTFGAGTKLELK
B19: 3D6 (antibody, V domains shown)
VH: B7 VH with S30R, F31Y, R43Q
VL: B1 VL with I5T, Y96F, G100S, I106L
B20: 3A8 (antibody, V domains shown)
VH: B1 VH with E1Q, A30T, S31I, L34I, K38R, E54D, G66A, I81M, F95Y
VL: B2 VL with Y71F, S77N, L85D, Y87F, L106M
B21: 3F5 (antibody, V domains shown)
VH: B7 VH with Q1E, V2I, S30R, F31Y, R43Q, S109T
VL: B3 VL with K3V, M4L
B22: 1G6 (antibody, V domains shown)
VH: B7 VH with Q1E, V2I, S30R, F31Y, R43Q
VL: B16 VL with D1N, N20S, S30N, A32D, S56T, D60T, S77G, V85D, S93N, M106L
B23: 3A3 (antibody, V domains shown)
VH: QVQLQQSGAELVKPGASVKMSCKASGYTFTTYNIHWVRQTPGQGLEWIGLIYPDNGDTSYNQKFKAKATLTADKSSSTAYMHLSSLTSEDSAVYYCARGGFDYWGQGTTLTVSS
VL: DIVMTQSHKFMSTSVGDRVSITCKASQDVNTDVSWYQQKPGQSPKLLIYSASYRYTGVPTRFTGSGSGTDFTFTISGVQAEDLADYYCQQHYNTPYTFGGGTRLEIK

Legend:
[1] = molecular target: T1, human FGFR2b extracellular domain (human, UniProt P21802); experiment: BLI
mouse FGFR2b = molecular target: T2, mouse FGFR2b (mouse, UniProt P21803); experiment: BLI
T2 chain: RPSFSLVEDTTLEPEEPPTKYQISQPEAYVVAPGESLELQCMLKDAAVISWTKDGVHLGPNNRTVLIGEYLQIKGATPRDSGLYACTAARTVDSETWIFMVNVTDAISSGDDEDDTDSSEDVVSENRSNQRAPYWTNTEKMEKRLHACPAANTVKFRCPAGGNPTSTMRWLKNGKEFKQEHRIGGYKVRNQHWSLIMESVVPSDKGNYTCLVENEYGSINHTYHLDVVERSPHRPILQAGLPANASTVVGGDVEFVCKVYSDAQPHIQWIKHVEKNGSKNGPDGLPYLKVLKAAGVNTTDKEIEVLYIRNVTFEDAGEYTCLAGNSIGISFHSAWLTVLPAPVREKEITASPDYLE

[2] = molecular target: human FGFR2b on KATO III cells (human, UniProt P21802); experiment: FACS
[3] = molecular target: T1, human FGFR2b extracellular domain; experiment: ELISA

Chain of human FGFR2b on KATO III cells (P21802 22-377): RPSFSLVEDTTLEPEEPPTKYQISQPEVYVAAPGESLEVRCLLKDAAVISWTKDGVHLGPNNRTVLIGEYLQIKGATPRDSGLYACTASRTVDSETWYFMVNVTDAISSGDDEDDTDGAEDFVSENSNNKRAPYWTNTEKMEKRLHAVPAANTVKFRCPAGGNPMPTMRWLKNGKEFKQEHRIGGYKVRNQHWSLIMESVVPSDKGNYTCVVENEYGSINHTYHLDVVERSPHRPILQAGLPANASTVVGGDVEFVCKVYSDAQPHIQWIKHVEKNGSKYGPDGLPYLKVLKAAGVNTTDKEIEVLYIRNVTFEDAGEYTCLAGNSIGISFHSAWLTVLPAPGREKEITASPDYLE
T1 sequence (P21802 22-377): as above

| Binder | Kd [1] | Kd (mouse FGFR2b) | EC50 [2] | EC50 [3] |
| --- | --- | --- | --- | --- |
| B1 | 6.67 nM | 23 nM | 0.195 µg/mL | 0.0276 µg/mL |
| B2 | 6.18 nM | 53.5 nM | 0.233 µg/mL | 0.0216 µg/mL |
| B3 | 13.3 nM | 74.9 nM | 0.133 µg/mL | 0.0273 µg/mL |
| B4 | 12.2 nM | 99.8 nM | 0.0656 µg/mL | 0.00818 µg/mL |
| B5 | 4.5 nM | 21.8 nM | 0.132 µg/mL | 0.0156 µg/mL |
| B6 | 3.99 nM | 8.71 nM | 0.2 µg/mL | 0.0166 µg/mL |
| B7 | 8.58 nM | 81.7 nM | 0.259 µg/mL | 0.0369 µg/mL |
| B8 | 5.69 nM | 23.8 nM | 0.161 µg/mL | 0.0278 µg/mL |
| B9 | 8.41 nM | 43.7 nM | 0.226 µg/mL | 0.0128 µg/mL |
| B10 | 6.13 nM | 26 nM | 0.164 µg/mL | 0.0156 µg/mL |
| B11 | 8.18 nM | 52.7 nM | 0.376 µg/mL | 0.0273 µg/mL |
| B12 | 7.6 nM | 33.9 nM | 0.117 µg/mL | 0.0147 µg/mL |
| B13 | 6.28 nM | 27.3 nM | 0.168 µg/mL | 0.0166 µg/mL |
| B14 | 4.35 nM | 40.9 nM | 0.298 µg/mL | 0.0154 µg/mL |
| B15 | 7.62 nM | 52.5 nM | 0.159 µg/mL | 0.00818 µg/mL |
| B16 | 2.82 nM | 10.7 nM | 0.292 µg/mL | 0.0128 µg/mL |
| B17 | 2.7 nM | 9.95 nM | 0.253 µg/mL | 0.0147 µg/mL |
| B18 | 4.51 nM | 27.6 nM | 0.167 µg/mL | 0.0154 µg/mL |
| B19 | 15 nM | 21.7 nM | 0.136 µg/mL | 0.0369 µg/mL |
| B20 | 3.48 nM | 7.17 nM | 0.199 µg/mL | 0.0278 µg/mL |
| B21 | 5.1 nM | 36.1 nM | 0.105 µg/mL | 0.0159 µg/mL |
| B22 | 3.97 nM | 42.2 nM | 0.186 µg/mL | 0.0235 µg/mL |
| B23 | 3.71 nM | 39.6 nM | 0.236 µg/mL | 0.0216 µg/mL |

Reference: patent US20260317430 (published 2026)
